Measurements reported in patent publication US20040254139, “Oligonucleotides antagonist for human tumor necrosis factor alpha (TNF-alpha)” (published 2004).

Key:
[1] = biological target: T1, TNF-alpha (tumor necrosis factor alpha) (Homo sapiens, UniProt P01375 P01375:77-233); experiment: ELONA; affinity and inhibition activity stated unchanged; details: chain copies: 3
[2] = biological target: T1, TNF-alpha (tumor necrosis factor alpha); experiment: ELONA; affinity unchanged; still positive at 3 ng/ml; details: chain copies: 3

T1 sequence (P01375 77-233, one chain of several): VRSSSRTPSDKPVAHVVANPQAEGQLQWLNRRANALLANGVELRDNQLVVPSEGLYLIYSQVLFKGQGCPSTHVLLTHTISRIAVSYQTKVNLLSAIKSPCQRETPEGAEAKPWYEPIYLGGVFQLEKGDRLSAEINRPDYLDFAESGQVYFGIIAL

Binder	binding result [1]	binding result [2]
GCUUAGCAAACGCACCGCACAGGCCCGCGG (ssRNA, 2'-F and 2'-NH2 pyrimidines (printed 2-fluorin and 2-amido)) [truncated modified SEQ 20]	binds	
CCUCAUAGACUACUGUUAAGCCUCGAGG (ssRNA, 2'-NH2 pyrimidines (printed 2-amido)) [truncated amino-modified SEQ 25]		binds
